Measured values published in US20140087995A1 (published 2014).
Numbered stars: 1 amine (or outer) side, 2 acyl side, 3 side chain; on linkers, the order of the positions; unused ones are H or OH. Bridge positions count the residues as written; N and C are the ends. Side chains are listed from the residue outwards. Ends that are not written are not given here. * marks the point of attachment. C20 diacid = O=C(O)CCCCCCCCCCCCCCCCCCC(=O)*; γGlu = O=C(O)[C@H](CCC(=O)[*:2])N[*:1]; AEEA = NCCOCCOCC(=O)O

T1: human amylin receptor (human, UniProt P30988 25-474; O60896 24-148, limits assumed)
T1 construct: whole, on cells; Calcitonin receptor plus RAMP-3 gives the amylin 3(a) receptor; membranes of Amylin 3(a)/CRE-luc cells were used; also called hAmylin-R; hAmylinR
T1 sequence (looked up) 1: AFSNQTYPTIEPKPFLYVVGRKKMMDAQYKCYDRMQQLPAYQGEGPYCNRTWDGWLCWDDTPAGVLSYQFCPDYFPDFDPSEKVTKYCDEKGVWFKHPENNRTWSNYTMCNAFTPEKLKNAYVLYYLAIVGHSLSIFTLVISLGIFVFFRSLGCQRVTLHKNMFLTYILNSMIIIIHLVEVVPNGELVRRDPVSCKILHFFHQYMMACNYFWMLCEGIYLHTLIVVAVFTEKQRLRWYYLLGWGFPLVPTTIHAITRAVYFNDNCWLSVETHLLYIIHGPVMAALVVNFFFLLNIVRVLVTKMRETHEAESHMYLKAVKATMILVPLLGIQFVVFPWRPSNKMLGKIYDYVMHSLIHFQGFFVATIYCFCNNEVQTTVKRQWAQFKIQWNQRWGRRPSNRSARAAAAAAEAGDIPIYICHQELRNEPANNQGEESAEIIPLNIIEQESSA
T1 sequence (looked up) 2: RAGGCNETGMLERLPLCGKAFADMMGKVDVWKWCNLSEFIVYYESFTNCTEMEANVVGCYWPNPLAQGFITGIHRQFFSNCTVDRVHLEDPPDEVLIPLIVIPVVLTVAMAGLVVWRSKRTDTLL


target: T1, human amylin receptor; test: SPA competition binding, displacement of 125I-rat amylin from membranes with human amylin 3(a) receptor (Assay V)
How it was run: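 Membranes from BHK Amylin 3(a)/CRE-luc cells (35 ng/μL final) were mixed with SPA beads and test compounds in 50 mM Hepes pH 7.4 with 1 mM CaCl2, 5 mM MgCl₂, 0.1% OA and 0.02% Tween20. Incubation ran 120 min at 25° C with shaking; IC₅₀ came from one-site competition fitting.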

IC50 [nM] | Binder
0.568 | K([AEEA-AEEA-γGlu-C20 diacid])CNTATCATQRLANFLRHSSPNFGAIPSSTNVGHNTY-NH2 (disulfide 2-7; N-terminus assumed; SMILES CC[C@H](C)[C@H](NC(=O)[C@H](C)NC(=O)CNC(=O)[C@H](Cc1ccccc1)NC(=O)[C@H](CC(N)=O)NC(=O)[C@@H]1CCCN1C(=O)[C@H](CO)NC(=O)[C@H](CO)NC(=O)[C@H](Cc1c[nH]cn1)NC(=O)[C@H](CCCNC(=N)N)NC(=O)[C@H](CC(C)C)NC(=O)[C@H](Cc1ccccc1)NC(=O)[C@H](CC(N)=O)NC(=O)[C@H](C)NC(=O)[C@H](CC(C)C)NC(=O)[C@H](CCCNC(=N)N)NC(=O)[C@H](CCC(N)=O)NC(=O)[C@@H](NC(=O)[C@H](C)NC(=O)[C@@H]1CSSC[C@H](NC(=O)[C@@H](N)CCCCNC(=O)COCCOCCNC(=O)COCCOCCNC(=O)CC[C@H](NC(=O)CCCCCCCCCCCCCCCCCCC(=O)O)C(=O)O)C(=O)N[C@@H](CC(N)=O)C(=O)N[C@@H]([C@@H](C)O)C(=O)N[C@@H](C)C(=O)N[C@@H]([C@@H](C)O)C(=O)N1)[C@@H](C)O)C(=O)N1CCC[C@H]1C(=O)N[C@@H](CO)C(=O)N[C@@H](CO)C(=O)N[C@H](C(=O)N[C@@H](CC(N)=O)C(=O)N[C@H](C(=O)NCC(=O)N[C@@H](Cc1c[nH]cn1)C(=O)N[C@@H](CC(N)=O)C(=O)N[C@H](C(=O)N[C@@H](Cc1ccc(O)cc1)C(N)=O)[C@@H](C)O)C(C)C)[C@@H](C)O, also called 17R, 21P, 27P, 34H)
0.172 | K([AEEA-γGlu-C20 diacid])CNTATCATQRLAAFLRHSSPNFGAIPSSTPVGSNTY-NH2 (disulfide 2-7; N-terminus assumed; SMILES CC[C@H](C)[C@H](NC(=O)[C@H](C)NC(=O)CNC(=O)[C@H](Cc1ccccc1)NC(=O)[C@H](CC(N)=O)NC(=O)[C@@H]1CCCN1C(=O)[C@H](CO)NC(=O)[C@H](CO)NC(=O)[C@H](Cc1c[nH]cn1)NC(=O)[C@H](CCCNC(=N)N)NC(=O)[C@H](CC(C)C)NC(=O)[C@H](Cc1ccccc1)NC(=O)[C@H](C)NC(=O)[C@H](C)NC(=O)[C@H](CC(C)C)NC(=O)[C@H](CCCNC(=N)N)NC(=O)[C@H](CCC(N)=O)NC(=O)[C@@H](NC(=O)[C@H](C)NC(=O)[C@@H]1CSSC[C@H](NC(=O)[C@@H](N)CCCCNC(=O)COCCOCCNC(=O)CC[C@H](NC(=O)CCCCCCCCCCCCCCCCCCC(=O)O)C(=O)O)C(=O)N[C@@H](CC(N)=O)C(=O)N[C@@H]([C@@H](C)O)C(=O)N[C@@H](C)C(=O)N[C@@H]([C@@H](C)O)C(=O)N1)[C@@H](C)O)C(=O)N1CCC[C@H]1C(=O)N[C@@H](CO)C(=O)N[C@@H](CO)C(=O)N[C@H](C(=O)N1CCC[C@H]1C(=O)N[C@H](C(=O)NCC(=O)N[C@@H](CO)C(=O)N[C@@H](CC(N)=O)C(=O)N[C@H](C(=O)N[C@@H](Cc1ccc(O)cc1)C(N)=O)[C@@H](C)O)C(C)C)[C@@H](C)O, also called 14A, 17R, 21P, 27P, 31P)
0.636 | K([AEEA-γGlu-C20 diacid])CNTATCATQRLARFLRHSSPNFGAIPSSTNVGSNTY-NH2 (disulfide 2-7; N-terminus assumed; SMILES CC[C@H](C)[C@H](NC(=O)[C@H](C)NC(=O)CNC(=O)[C@H](Cc1ccccc1)NC(=O)[C@H](CC(N)=O)NC(=O)[C@@H]1CCCN1C(=O)[C@H](CO)NC(=O)[C@H](CO)NC(=O)[C@H](Cc1c[nH]cn1)NC(=O)[C@H](CCCNC(=N)N)NC(=O)[C@H](CC(C)C)NC(=O)[C@H](Cc1ccccc1)NC(=O)[C@H](CCCNC(=N)N)NC(=O)[C@H](C)NC(=O)[C@H](CC(C)C)NC(=O)[C@H](CCCNC(=N)N)NC(=O)[C@H](CCC(N)=O)NC(=O)[C@@H](NC(=O)[C@H](C)NC(=O)[C@@H]1CSSC[C@H](NC(=O)[C@@H](N)CCCCNC(=O)COCCOCCNC(=O)CC[C@H](NC(=O)CCCCCCCCCCCCCCCCCCC(=O)O)C(=O)O)C(=O)N[C@@H](CC(N)=O)C(=O)N[C@@H]([C@@H](C)O)C(=O)N[C@@H](C)C(=O)N[C@@H]([C@@H](C)O)C(=O)N1)[C@@H](C)O)C(=O)N1CCC[C@H]1C(=O)N[C@@H](CO)C(=O)N[C@@H](CO)C(=O)N[C@H](C(=O)N[C@@H](CC(N)=O)C(=O)N[C@H](C(=O)NCC(=O)N[C@@H](CO)C(=O)N[C@@H](CC(N)=O)C(=O)N[C@H](C(=O)N[C@@H](Cc1ccc(O)cc1)C(N)=O)[C@@H](C)O)C(C)C)[C@@H](C)O, also called 14R, 17R, 21P, 27P)
0.091 | K([AEEA-AEEA-γGlu-C20 diacid])CNTATCATQRLANFLRHSSPNFGAIPSSTNVGPNTY-NH2 (disulfide 2-7; N-terminus assumed; SMILES CC[C@H](C)[C@H](NC(=O)[C@H](C)NC(=O)CNC(=O)[C@H](Cc1ccccc1)NC(=O)[C@H](CC(N)=O)NC(=O)[C@@H]1CCCN1C(=O)[C@H](CO)NC(=O)[C@H](CO)NC(=O)[C@H](Cc1c[nH]cn1)NC(=O)[C@H](CCCNC(=N)N)NC(=O)[C@H](CC(C)C)NC(=O)[C@H](Cc1ccccc1)NC(=O)[C@H](CC(N)=O)NC(=O)[C@H](C)NC(=O)[C@H](CC(C)C)NC(=O)[C@H](CCCNC(=N)N)NC(=O)[C@H](CCC(N)=O)NC(=O)[C@@H](NC(=O)[C@H](C)NC(=O)[C@@H]1CSSC[C@H](NC(=O)[C@@H](N)CCCCNC(=O)COCCOCCNC(=O)COCCOCCNC(=O)CC[C@H](NC(=O)CCCCCCCCCCCCCCCCCCC(=O)O)C(=O)O)C(=O)N[C@@H](CC(N)=O)C(=O)N[C@@H]([C@@H](C)O)C(=O)N[C@@H](C)C(=O)N[C@@H]([C@@H](C)O)C(=O)N1)[C@@H](C)O)C(=O)N1CCC[C@H]1C(=O)N[C@@H](CO)C(=O)N[C@@H](CO)C(=O)N[C@H](C(=O)N[C@@H](CC(N)=O)C(=O)N[C@H](C(=O)NCC(=O)N1CCC[C@H]1C(=O)N[C@@H](CC(N)=O)C(=O)N[C@H](C(=O)N[C@@H](Cc1ccc(O)cc1)C(N)=O)[C@@H](C)O)C(C)C)[C@@H](C)O, also called 17R, 21P, 27P, 34P)
0.444 | K([AEEA-γGlu-C20 diacid])CNTATCATQRLARFLRHSSPNFGAIPSSTPVGSNTY-NH2 (disulfide 2-7; N-terminus assumed; SMILES CC[C@H](C)[C@H](NC(=O)[C@H](C)NC(=O)CNC(=O)[C@H](Cc1ccccc1)NC(=O)[C@H](CC(N)=O)NC(=O)[C@@H]1CCCN1C(=O)[C@H](CO)NC(=O)[C@H](CO)NC(=O)[C@H](Cc1c[nH]cn1)NC(=O)[C@H](CCCNC(=N)N)NC(=O)[C@H](CC(C)C)NC(=O)[C@H](Cc1ccccc1)NC(=O)[C@H](CCCNC(=N)N)NC(=O)[C@H](C)NC(=O)[C@H](CC(C)C)NC(=O)[C@H](CCCNC(=N)N)NC(=O)[C@H](CCC(N)=O)NC(=O)[C@@H](NC(=O)[C@H](C)NC(=O)[C@@H]1CSSC[C@H](NC(=O)[C@@H](N)CCCCNC(=O)COCCOCCNC(=O)CC[C@H](NC(=O)CCCCCCCCCCCCCCCCCCC(=O)O)C(=O)O)C(=O)N[C@@H](CC(N)=O)C(=O)N[C@@H]([C@@H](C)O)C(=O)N[C@@H](C)C(=O)N[C@@H]([C@@H](C)O)C(=O)N1)[C@@H](C)O)C(=O)N1CCC[C@H]1C(=O)N[C@@H](CO)C(=O)N[C@@H](CO)C(=O)N[C@H](C(=O)N1CCC[C@H]1C(=O)N[C@H](C(=O)NCC(=O)N[C@@H](CO)C(=O)N[C@@H](CC(N)=O)C(=O)N[C@H](C(=O)N[C@@H](Cc1ccc(O)cc1)C(N)=O)[C@@H](C)O)C(C)C)[C@@H](C)O, also called 14R, 17R, 21P, 27P, 31P)
0.166 | K([AEEA-AEEA-γGlu-C20 diacid])CNTATCATQRLANFLRHSSPNFGAIPSSTPVGSNTY-NH2 (disulfide 2-7; N-terminus assumed; SMILES CC[C@H](C)[C@H](NC(=O)[C@H](C)NC(=O)CNC(=O)[C@H](Cc1ccccc1)NC(=O)[C@H](CC(N)=O)NC(=O)[C@@H]1CCCN1C(=O)[C@H](CO)NC(=O)[C@H](CO)NC(=O)[C@H](Cc1c[nH]cn1)NC(=O)[C@H](CCCNC(=N)N)NC(=O)[C@H](CC(C)C)NC(=O)[C@H](Cc1ccccc1)NC(=O)[C@H](CC(N)=O)NC(=O)[C@H](C)NC(=O)[C@H](CC(C)C)NC(=O)[C@H](CCCNC(=N)N)NC(=O)[C@H](CCC(N)=O)NC(=O)[C@@H](NC(=O)[C@H](C)NC(=O)[C@@H]1CSSC[C@H](NC(=O)[C@@H](N)CCCCNC(=O)COCCOCCNC(=O)COCCOCCNC(=O)CC[C@H](NC(=O)CCCCCCCCCCCCCCCCCCC(=O)O)C(=O)O)C(=O)N[C@@H](CC(N)=O)C(=O)N[C@@H]([C@@H](C)O)C(=O)N[C@@H](C)C(=O)N[C@@H]([C@@H](C)O)C(=O)N1)[C@@H](C)O)C(=O)N1CCC[C@H]1C(=O)N[C@@H](CO)C(=O)N[C@@H](CO)C(=O)N[C@H](C(=O)N1CCC[C@H]1C(=O)N[C@H](C(=O)NCC(=O)N[C@@H](CO)C(=O)N[C@@H](CC(N)=O)C(=O)N[C@H](C(=O)N[C@@H](Cc1ccc(O)cc1)C(N)=O)[C@@H](C)O)C(C)C)[C@@H](C)O, also called 17R, 21P, 27P, 31P)
